Laboratory results: US8198235B2, “Use of GILZ protein expressed in dendritic cells to modulate an antigen-specific immune response” (Assistance Publique-Hopitaux de Paris, priority 2004, dated 2012)

B1: IL-10: recombinant human IL-10 (rhIL-10, DNAX) (protein, UniProt P22301 19-178, looked up)
Interleukin-10: SPGQGTQSENSCTHFPGNLPNMLRDLRDAFSRVKTFFQMKDQLDNLLLKESLLEDFKGYLGCQALSEMIQFYLEEVMPQAENQDPDIKAHVNSLGENLKTLRLRLRRCHRFLPCENKSKAVEQVKNAFNKLQEKGIYKAMSEFDIFINYIEAYMTMKIRN

Legend:
Assay type in all cases: cell-based, human
[1] = system: regulatory T lymphocytes; assay: Induction of regulatory T cells: sensitized CD4+ T cells added to autologous PBMCs stimulated with PPD or CMV; conditions: CD4+ T sensitized with PPD-loaded dendritic cells treated with dexamethasone and control siRNA
Description: To evaluate the induction of the regulatory T cells (Tregs), immature monocyte-derived dendritic cells treated on the fifth day of culture (D5) with a controlled siRNA or an siRNA targeting GILZ (siRNA GILZ) alone, or else with either dexamethasone (DEX) or IL-10, or not treated, and then treated with the PPD on D7, were cocultured with CD4^+ T cells, as described in example 2. The CD4^+ T cells were purified on the seventh day of DC-CD4^+ T coculture and added in increasing amounts to 10^5 autologous PBMCs stimulated with PPD (1 μg/ml, STATENS SERUM INSTITUTE) or the cytomegalovirus (CMV, 25 μg/ml, BEHRING).
The hypothesis that the GILZ-expressing dendritic cells inhibit the CD4^+ T lymphocyte response by inducing regulatory T lymphocytes during antigen presentation was verified experimentally. Dendritic cells were treated with a control or anti-GILZ siRNA, alone or with dexamethasone, and with PPD (first culture). After washing, the dendritic cells were used to stimulate autologous CD4^+ T lymphocytes. The CD4^+ T lymphocytes of this second culture (sensitized CD4^+ T lymphocytes) were purified and added in increasing amounts to autologous PBMCs stimulated either with PPD or with CMV (third culture). The CD4^+ T lymphocytes sensitized with nontreated dendritic cells or dendritic cells treated with a control siRNA have no effect on the proliferative response of the third culture. […]

[2] = system: GILZ gene; assay: Quantitative RT-PCR analysis of GILZ gene expression in monocyte derived dendritic cells; conditions: added on fifth day of culture; Dex 10^-7 M, IL-10 100 ng/ml, TGFβ 20 ng/ml; detected before and after CD40L
Experimental: (§1) Immature monocyte derived dendritic cells (iMDDCs) were prepared as described in Palucka et al., J. Immunol., 1998, 160, 4587-4595, apart from minor modifications. Briefly, human monocytes were isolated from the peripheral blood mononucleocell fraction by negative selection, according to the manufacturer's (DYNAL) recommendations. The monocytes (1 to 2×10^5 cells/ml) were cultured for 7 days in the presence of GM-CSF and IL-4 (100 ng/ml and 50 ng/ml, respectively, SCHERING-PLOUGH). The maturation of the dendritic cells (MDDCs) was induced in the presence of CD40L (250 ng/ml; IMMUNEX). Dexamethasone (DEX, SIGMA), recombinant human IL-10 (rhIL-10, DNAX) and TGFβ (R&D) were used at the following respective concentrations: 10^−7 M, 100 ng/ml and 20 ng/ml. For the in vivo experiments, the antigen-presenting cells (APCs) were purified using the monocyte negative selection kit according to the manufacturer's (DYNAL) recommendations.
The expression of the human GILZ gene was analyzed by real time RT-PCR according to the manufacturer's recommendations (Lightcycler™, ROCHE), using the pair of primers described in Berrebi et al. BLOOD, 2003, 101, 729-738 and the human β-actin gene as internal control.

[3] = system: monocyte derived dendritic cells; assay: Dendritic cell phenotype by flow cytometry (CD80, CD83, CD86, B7-H1); conditions: treated D5, CD40L D7, phenotype D9
Experimental: as §1
The dendritic cell phenotype was analyzed by four-color flow cytometry, using the following monoclonal antibodies: phycoerythrin-coupled anti-CD83 (CD83-PE, COULTER); phycoerythrin-coupled anti-CD80 (CD80-PE, BD BIOSCIENCES); anti-B7-H1 (CLINISCIENCES) and phycoerythrin-coupled anti-CD86 (CD86-PE, BD PHARMINGEN). The anti-B7-H1 antibody is detected using a phycoerythrin-coupled secondary antibody (BD PHARMINGEN). […]

[4] = system: CCL3, CCL5 and CXCL8; assay: Chemokine ELISA in dendritic cell culture supernatant after CD40L; conditions: dendritic cells treated before addition of CD40L
Experimental: as §1
The production of chemokines in the culture supernatant of the dendritic cells was analyzed using ELISA kits (R&D SYSTEMS) according to the manufacturer's instructions.

Row | Molecule | anti-CMV response of the third culture [1] | expression of GILZ (RT-PCR) [2] | expression of B7-H1 [3] | expression of CD80, CD83 and CD86 [3] | CD40L-induced production of the chemokines CCL3, CCL5 and CXCL8 [4]
1 | C[C@@H]1C[C@H]2[C@@H]3CCC4=CC(=O)C=C[C@]4(C)[C@@]3(F)[C@@H](O)C[C@]2(C)[C@@]1(O)C(=O)CO [dexamethasone] | no effect |  |  |  | 
2 | TGFβ |  | stimulates the expression of GILZ |  |  | 
3 | B1 |  | stimulates the expression of GILZ | stimulate | inhibit | partially inhibited
